Experimental findings from paper doi:10.1101/273615 (bioRxiv, 2018) are described below.

Where a chain is given by its changes, count along the chain named. Numbers in names are those of the source.

Among the targets are RBPJ (53-474) A284V (Mus musculus, UniProt P31266 53-474, A284V); RBPJ (53-474) L388A (Mus musculus, UniProt P31266 53-474, L388A); RBPJ (53-474) F261A (Mus musculus, UniProt P31266 53-474, F261A).
Holding throughout (experiment): ITC
A general note: In ITC the heat of successive injections is recorded.

Test [1] concerns the target Mus musculus core RBPJ, residues 53-474 (Mus musculus, UniProt P31266 53-474).

As usually defined, the Kd is a measure of binding affinity in units of concentration. A high value points to lower affinity. Broadly, the stoichiometry N is the number of molecules, sites or subunits per partner or assembly.

Chain of Mus musculus core RBPJ, residues 53-474 (P31266 53-474): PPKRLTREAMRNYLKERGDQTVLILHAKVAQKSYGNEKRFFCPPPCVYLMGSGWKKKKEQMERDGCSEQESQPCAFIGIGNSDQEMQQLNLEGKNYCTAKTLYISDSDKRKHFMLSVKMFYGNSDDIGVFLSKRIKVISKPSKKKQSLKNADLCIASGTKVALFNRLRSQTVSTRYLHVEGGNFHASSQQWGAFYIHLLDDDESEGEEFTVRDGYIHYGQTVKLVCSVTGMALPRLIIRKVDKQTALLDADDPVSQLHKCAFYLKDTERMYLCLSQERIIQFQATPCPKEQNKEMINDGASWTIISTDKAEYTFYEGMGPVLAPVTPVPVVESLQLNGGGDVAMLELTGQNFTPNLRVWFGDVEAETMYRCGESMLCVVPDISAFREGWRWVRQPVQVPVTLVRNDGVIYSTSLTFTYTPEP
Chain of RBPJ (53-474) A284V (P31266 53-474 A284V): as the sequence (P31266 53-474) above, with A232V counted along it
Chain of RBPJ (53-474) L388A (P31266 53-474 L388A): as the sequence (P31266 53-474) above, with L336A counted along it
Chain of RBPJ (53-474) F261A (P31266 53-474 F261A): as the sequence (P31266 53-474) above, with F209A counted along it

B1: SMT3-SHARP, residues 2776-2833 (RBPJ-interacting region) (domain or fragment, UniProt Q96T58 2802-2859, looked up)
chain: SGAGLRVNTSEGVVLLSYSGQKTEGPQRISAKISQIPPASAMDIEFQQSVSKSQVKPD
As to B1, the “fold reduction in binding against native RBPJ” value with RBPJ (53-474) A284V is about 50 fold; with RBPJ (53-474) L388A, about 70 fold; with RBPJ (53-474) F261A it was about 45 fold. In addition, the Kd in test [1] was about 5 nM. Also, the “stoichiometry N” value in test [1] was determined as 1.

B2: SMT3-SHARP (2776-2833) I2811A (domain or fragment, UniProt Q96T58 2802-2859, looked up)
chain: B1 chain with I36A
B2: the “fold reduction in binding against native SHARP” value in test [1] is over 60 fold.

B3: SMT3-SHARP (2776-2833) Y2793A (domain or fragment, UniProt Q96T58 2802-2859, looked up)
chain: B1 chain with Y18A
Consider B3, for which the “fold reduction in binding against native SHARP” value in test [1] is over 20 fold.

B4: SMT3-SHARP (2776-2833) K2807A (domain or fragment, UniProt Q96T58 2802-2859, looked up)
chain: B1 chain with K32A
B4: the “fold reduction in binding against native SHARP” value in test [1] is about 6 fold.

B5: SMT3-SHARP (2776-2833) L2791A (domain or fragment, UniProt Q96T58 2802-2859, looked up)
chain: B1 chain with L16A
As for B5, the “fold decrease in binding against native SHARP” value in test [1] was over 350 fold.

B6: SMT3-SHARP (2776-2833) V2789A (domain or fragment, UniProt Q96T58 2802-2859, looked up)
chain: B1 chain with V14A
Turning to B6, the “fold reduction in binding against native SHARP” value in test [1] is over 10 fold.
